# Test results taken from patent US20160299151.
# T1: L-alanine-L-glutamine
# T1 chain: AQ
# T2: L-glycine-L-glutamine
# T2 chain: GQ
# Tests used:
# L-alanine-L-glutamine = biological target: T1, L-alanine-L-glutamine
# L-glycine-L-glutamine = biological target: T2, L-glycine-L-glutamine
protein,measurement,setting,value
"holo-BpsA (BpsA pre-activated by Sfp as in Example 1), His6-tagged recombinant polypeptide (protein) MTLQETSVLEPTLQGTTTLPGLLAQRVAEHPEAIAVAYRDDKLTFRELASRSAALADYLEHLGVSADDCVGLFVEPSIDLMVGAWGILNAGAAYLPLSPEYPEDRLRYMIENSETKIILAQQRLVSRLRELAPKDVTIVTLRESEAFVRPEGTEAPAARSARPDTLAYVIYTSGSTGKPKGVMIEHRSIVNQLGWLRETYAIDRSKVILQKTPMSFDAAQWEILSPANGATVVMGAPGVYADPEGLIETIVKHNVTTLQCVPTLLQGLIDTEKFPECVSLQQIFSGGEALSRLLAIQTTQEMPGRALINVYGPTETTINSSSFPVDPADLDEGPQSISIGSPVHGTTYHILDKETLKPVGVGEIGELYIGGIQLARGYLHRDDLTAERFLEIELEEGAEPVRLYKTGDLGQWNNDGTVQFAGRADNQVKLRGYRVELDEISLAIENHDWVRNAAVIVKNDGRTGFQNLIACIELSEKEAALMDQGNHGSHHASKKSKLQVKAQLSNPGLRDDAELAARPAFDLEGAEPTPEQRARVFARKTYRFYEGGAVTQADLLGLLGATVTAGYSRKAADLAPAELGQILRWFGQYISEERLLPKYGYASPGALYATQMYFELEGVGGLKPGYYYYQPVRHQLVLISEREATGKATAQIHFIGKKSGIEPVYKNNILEVLEIETGHMVGLFEQILPAYGLDIHDRAYEPAVKDLLDVADEDYYLGTFELVPHAGARDDQAEVYVQTHGGKVAGLPEGQYRYENGELTRFSDDIVLKKHVIAINQSVYQAASFGISVYSRAEEEWLKYITLGKKLQHLMMNGLNLGFMSSGYSSKTGNPLPASRRMDAVLGANGVDSAPMYFFVGGRISDEQIGHEGMREDSVHMRGPAELIRDDLVSFLPDYMIPNRVVVFDRLPLSANGKIDVKALAASDQVNAELVERPFVAPRTETEKEIAAVWEKALRRENASVQDDFFESGGNSLIAVGLVRELNARLGVSLPLQSVLESPTIEKLARRLEREVAQESSRFVRLHAETGKARPVICWPGLGGYPMNLRSLAGEIGLGRSFYGVQSYGINEGETPYETITEMAKKDIEALKEIQPAGPYTLWGYSFGARVAFETAYQLEQAGEKVDNLFLIAPGSPKVRAENGKVWGREASFANRGYTTILFSVFTGTISGPDLDRCLETVTDEASFAEFISELKGIDVDLARRIISVVGQTYEFEYSFHELAERTLQAPISIFKAVGDDYSFLENSSGYSAEPPTVIDLDADHYSLLREDIGELVKHIRYLLGE",blue pigment formation (A590 after resuspension in DMSO) after 72 hours at 25 C with 4 mM substrate,L-alanine-L-glutamine,"In each case except the no substrate control, blue pigment formation was observed, suggesting that an indigoidine like product had indeed been formed"
same,blue pigment formation (A590 after resuspension in DMSO) after 72 hours at 25 C with 4 mM substrate,L-glycine-L-glutamine,"In each case except the no substrate control, blue pigment formation was observed, suggesting that an indigoidine like product had indeed been formed"
